# According to article PMC12627087, “mRNA delivery of circumsporozoite protein epitope-based malaria vaccines induces protection in a mouse model” (NPJ Vaccines, 2025):
# Positions count from the first letter of the chain named.
# B1: J3 60mer (other)
# chain: KLKQPADGNPDPNANPNVDPNANPNVDPNANPNVDPGSGNGTGGSMQIYEGKLTAEGLRFGIVASRANHALVDRLVEGAIDAIVRHGGREEDITLVRVCGSWEIPVAAGELARKENISAVIAIGVLCRGATPSFDYIASEVSKGLADLSLELRKPITFGVITADTLEQAIEAAGTCHGNKGWEAALCAIEMANLFKSLRGGSNGTGGSGGSNGT
# modifications: glycosylated (engineered glycosylation sites)
# notes: Plasmodium falciparum circumsporozoite protein (PfCSP), strain 3D7; J3, full-length junctional peptide beginning with Region I; linker between the peptide and lumazine synthase; C-terminal extension with two added glycosylation sites; Self-assembling lumazine synthase nanoparticle; cloned into pHLsec between the leader and a double stop codon (AgeI/KpnI); also called peptide J3-60mer; source: …
# B2: P1 24mer (other)
# chain: YGSSSNTRVLNELNYLSKDIIKLLNEQVNKEMQSSNLYMSMSSWCYTHSLDGAGLFLFDHAAEEYEHAKKLIIFLNENNVPVNLTSISAPEHNFTGLTQIFQKAYEHEQNISESINNITDHAIKSKDHATFNFLQWYVAEQHEEEVLFKDILDKIELIGNENHGLYLADQYVKGIAKSRKS
# modifications: glycosylated (engineered glycosylation sites)
# notes: Plasmodium falciparum circumsporozoite protein (PfCSP), strain 3D7; Self-assembling ferritin nanoparticle; cloned into pHLsec between the leader and a double stop codon (AgeI/KpnI); source: FreeStyle 293 F cells, transfected, purified (snowdrop lectin agarose, Superose 6 SEC); copies: 24
# B3: P9 24mer (other)
# chain: KQENWYSLKKNSRSLLSKDIIKLLNEQVNKEMQSSNLYMSMSSWCYTHSLDGAGLFLFDHAAEEYEHAKKLIIFLNENNVPVNLTSISAPEHNFTGLTQIFQKAYEHEQNISESINNITDHAIKSKDHATFNFLQWYVAEQHEEEVLFKDILDKIELIGNENHGLYLADQYVKGIAKSRKS
# modifications: glycosylated (engineered glycosylation sites)
# notes: as for B2
# B4: P15 24mer (other)
# chain: DNEKLRKPKHKKLKQLSKDIIKLLNEQVNKEMQSSNLYMSMSSWCYTHSLDGAGLFLFDHAAEEYEHAKKLIIFLNENNVPVNLTSISAPEHNFTGLTQIFQKAYEHEQNISESINNITDHAIKSKDHATFNFLQWYVAEQHEEEVLFKDILDKIELIGNENHGLYLADQYVKGIAKSRKS
# modifications: glycosylated (engineered glycosylation sites)
# notes: as for B2
# B5: C-term MD1 24mer (other)
# chain: EPSDNHTKSYYAKIQNSLSTEWSPCSVTCGNGIQVRIKPGSANKPKANLTYANDIEKKICKMEKCGGSLSKDIIKLLNEQVNKEMQSSNLYMSMSSWCYTHSLDGAGLFLFDHAAEEYEHAKKLIIFLNENNVPVNLTSISAPEHNFTGLTQIFQKAYEHEQNISESINNITDHAIKSKDHATFNFLQWYVAEQHEEEVLFKDILDKIELIGNENHGLYLADQYVKGIAKSRKS
# modifications: glycosylated (engineered glycosylation sites)
# notes: Plasmodium falciparum circumsporozoite protein (PfCSP), strain 3D7; C-terminal αTSR domain, Rosetta-designed variant MD1; linker; Self-assembling ferritin nanoparticle; cloned into pHLsec between the leader and a double stop codon (AgeI/KpnI); also called modified-1 C-term 24mer; MD1 αTSR 24mer; source: FreeStyle 293 F cells, transfected, purified (snowdrop lectin agarose, Superose 6 SEC); …
# B6: C-term WT 24mer (other)
# chain: B5 chain with N5K, T7I, S9E, Y11L, A12N, A47D, N48E, T50D
# modifications: glycosylated (engineered glycosylation sites)
# notes: Plasmodium falciparum circumsporozoite protein (PfCSP), strain 3D7; wild-type C-terminal αTSR domain, without the C-terminal linker; linker; Self-assembling ferritin nanoparticle; cloned into pHLsec between the leader and a double stop codon (AgeI/KpnI); also called wild-type C-terminal domain on 24mer; WT αTSR 24mer; source: FreeStyle 293 F cells, transfected, purified (snowdrop lectin agarose, …)
# B7: C-term WT 60mer (other)
# chain: EPSDKHIKEYLNKIQNSLSTEWSPCSVTCGNGIQVRIKPGSANKPKDELDYANDIEKKICKMEKCGGSMQIYEGKLTAEGLRFGIVASRANHALVDRLVEGAIDAIVRHGGREEDITLVRVCGSWEIPVAAGELARKENISAVIAIGVLCRGATPSFDYIASEVSKGLADLSLELRKPITFGVITADTLEQAIEAAGTCHGNKGWEAALCAIEMANLFKSLRGGSNGTGGSGGSNGT
# modifications: glycosylated (engineered glycosylation sites)
# notes: Plasmodium falciparum circumsporozoite protein (PfCSP), strain 3D7; wild-type C-terminal αTSR domain, without the C-terminal linker; linker; C-terminal extension with two added glycosylation sites; Self-assembling lumazine synthase nanoparticle; cloned into pHLsec between the leader and a double stop codon (AgeI/KpnI); also called wild-type C-terminal domain on 60mer; WT αTSR 60mer; source: …
# B8: C-term MD1 60mer (other)
# chain: B7 chain with K5N, I7T, E9S, L11Y, N12A, D47A, E48N, D50T
# modifications: glycosylated (engineered glycosylation sites)
# notes: Plasmodium falciparum circumsporozoite protein (PfCSP), strain 3D7; C-terminal αTSR domain, Rosetta-designed variant MD1; linker; C-terminal extension with two added glycosylation sites; Self-assembling lumazine synthase nanoparticle; cloned into pHLsec between the leader and a double stop codon (AgeI/KpnI); also called modified-1 C-term 60mer; MD1 αTSR 60mer; source: FreeStyle 293 F cells, …
# B9: P1 60mer (other)
# chain: YGSSSNTRVLNELNYGSGNGTGGSMQIYEGKLTAEGLRFGIVASRANHALVDRLVEGAIDAIVRHGGREEDITLVRVCGSWEIPVAAGELARKENISAVIAIGVLCRGATPSFDYIASEVSKGLADLSLELRKPITFGVITADTLEQAIEAAGTCHGNKGWEAALCAIEMANLFKSLRGGSNGTGGSGGSNGT
# modifications: glycosylated (engineered glycosylation sites)
# notes: Plasmodium falciparum circumsporozoite protein (PfCSP), strain 3D7; linker between the peptide and lumazine synthase; C-terminal extension with two added glycosylation sites; Self-assembling lumazine synthase nanoparticle; cloned into pHLsec between the leader and a double stop codon (AgeI/KpnI); source: FreeStyle 293 F cells, transfected, purified (snowdrop lectin agarose, Superose 6 SEC); …
# B10: P9 60mer (other)
# chain: KQENWYSLKKNSRSLGSGNGTGGSMQIYEGKLTAEGLRFGIVASRANHALVDRLVEGAIDAIVRHGGREEDITLVRVCGSWEIPVAAGELARKENISAVIAIGVLCRGATPSFDYIASEVSKGLADLSLELRKPITFGVITADTLEQAIEAAGTCHGNKGWEAALCAIEMANLFKSLRGGSNGTGGSGGSNGT
# modifications: glycosylated (engineered glycosylation sites)
# notes: as for B9
# B11: J3 24mer (other)
# chain: KLKQPADGNPDPNANPNVDPNANPNVDPNANPNVDPLSKDIIKLLNEQVNKEMQSSNLYMSMSSWCYTHSLDGAGLFLFDHAAEEYEHAKKLIIFLNENNVPVNLTSISAPEHNFTGLTQIFQKAYEHEQNISESINNITDHAIKSKDHATFNFLQWYVAEQHEEEVLFKDILDKIELIGNENHGLYLADQYVKGIAKSRKS
# modifications: glycosylated (engineered glycosylation sites)
# notes: Plasmodium falciparum circumsporozoite protein (PfCSP), strain 3D7; J3, full-length junctional peptide beginning with Region I; Self-assembling ferritin nanoparticle; cloned into pHLsec between the leader and a double stop codon (AgeI/KpnI); also called peptide J3-24mer; source: FreeStyle 293 F cells, transfected, purified (snowdrop lectin agarose, Superose 6 SEC); copies: 24
# B12: J2 60mer (other)
# chain: KLKQPADGNPDPNANPNVDPNANPNVDPGSGNGTGGSMQIYEGKLTAEGLRFGIVASRANHALVDRLVEGAIDAIVRHGGREEDITLVRVCGSWEIPVAAGELARKENISAVIAIGVLCRGATPSFDYIASEVSKGLADLSLELRKPITFGVITADTLEQAIEAAGTCHGNKGWEAALCAIEMANLFKSLRGGSNGTGGSGGSNGT
# modifications: glycosylated (engineered glycosylation sites)
# notes: Plasmodium falciparum circumsporozoite protein (PfCSP), strain 3D7; J2, minimal junction peptide beginning with Region I; linker between the peptide and lumazine synthase; C-terminal extension with two added glycosylation sites; Self-assembling lumazine synthase nanoparticle; cloned into pHLsec between the leader and a double stop codon (AgeI/KpnI); also called peptide J2-60mer; short junctional …
# B13: P8 60mer (other)
# chain: NYYGKQENWYSLKKNGSGNGTGGSMQIYEGKLTAEGLRFGIVASRANHALVDRLVEGAIDAIVRHGGREEDITLVRVCGSWEIPVAAGELARKENISAVIAIGVLCRGATPSFDYIASEVSKGLADLSLELRKPITFGVITADTLEQAIEAAGTCHGNKGWEAALCAIEMANLFKSLRGGSNGTGGSGGSNGT
# modifications: glycosylated (engineered glycosylation sites)
# notes: as for B9
# B14: P8 24mer (other)
# chain: NYYGKQENWYSLKKNLSKDIIKLLNEQVNKEMQSSNLYMSMSSWCYTHSLDGAGLFLFDHAAEEYEHAKKLIIFLNENNVPVNLTSISAPEHNFTGLTQIFQKAYEHEQNISESINNITDHAIKSKDHATFNFLQWYVAEQHEEEVLFKDILDKIELIGNENHGLYLADQYVKGIAKSRKS
# modifications: glycosylated (engineered glycosylation sites)
# notes: as for B2
# B15: (NANP)6 60mer (other)
# chain: NANPNANPNANPNANPNANPNANPGSGNGTGGSMQIYEGKLTAEGLRFGIVASRANHALVDRLVEGAIDAIVRHGGREEDITLVRVCGSWEIPVAAGELARKENISAVIAIGVLCRGATPSFDYIASEVSKGLADLSLELRKPITFGVITADTLEQAIEAAGTCHGNKGWEAALCAIEMANLFKSLRGGSNGTGGSGGSNGT
# modifications: glycosylated (engineered glycosylation sites)
# notes: Plasmodium falciparum circumsporozoite protein (PfCSP), strain 3D7; (NANP)6, 24-residue NANP repeat peptide; linker between the peptide and lumazine synthase; C-terminal extension with two added glycosylation sites; Self-assembling lumazine synthase nanoparticle; cloned into pHLsec between the leader and a double stop codon (AgeI/KpnI); also called (NANP)6 peptide 60mer; source: FreeStyle 293 F …
# B16: (NANP)6 24mer (other)
# chain: NANPNANPNANPNANPNANPNANPLSKDIIKLLNEQVNKEMQSSNLYMSMSSWCYTHSLDGAGLFLFDHAAEEYEHAKKLIIFLNENNVPVNLTSISAPEHNFTGLTQIFQKAYEHEQNISESINNITDHAIKSKDHATFNFLQWYVAEQHEEEVLFKDILDKIELIGNENHGLYLADQYVKGIAKSRKS
# modifications: glycosylated (engineered glycosylation sites)
# notes: Plasmodium falciparum circumsporozoite protein (PfCSP), strain 3D7; (NANP)6, 24-residue NANP repeat peptide; Self-assembling ferritin nanoparticle; cloned into pHLsec between the leader and a double stop codon (AgeI/KpnI); source: FreeStyle 293 F cells, transfected, purified (snowdrop lectin agarose, Superose 6 SEC); copies: 24
# B17: J2 24mer (other)
# chain: KLKQPADGNPDPNANPNVDPNANPNVDPLSKDIIKLLNEQVNKEMQSSNLYMSMSSWCYTHSLDGAGLFLFDHAAEEYEHAKKLIIFLNENNVPVNLTSISAPEHNFTGLTQIFQKAYEHEQNISESINNITDHAIKSKDHATFNFLQWYVAEQHEEEVLFKDILDKIELIGNENHGLYLADQYVKGIAKSRKS
# modifications: glycosylated (engineered glycosylation sites)
# notes: Plasmodium falciparum circumsporozoite protein (PfCSP), strain 3D7; J2, minimal junction peptide beginning with Region I; Self-assembling ferritin nanoparticle; cloned into pHLsec between the leader and a double stop codon (AgeI/KpnI); also called peptide J2-24mer; source: FreeStyle 293 F cells, transfected, purified (snowdrop lectin agarose, Superose 6 SEC); copies: 24
# B18: J3R3 24mer (other)
# chain: KLKQPADGNPDPNANPNVDPNANPNVDPNANPNVDPNANPNANPNANPLSKDIIKLLNEQVNKEMQSSNLYMSMSSWCYTHSLDGAGLFLFDHAAEEYEHAKKLIIFLNENNVPVNLTSISAPEHNFTGLTQIFQKAYEHEQNISESINNITDHAIKSKDHATFNFLQWYVAEQHEEEVLFKDILDKIELIGNENHGLYLADQYVKGIAKSRKS
# modifications: glycosylated (engineered glycosylation sites)
# notes: Plasmodium falciparum circumsporozoite protein (PfCSP), strain 3D7; J3R3, junctional peptide with three added NANP repeats; Self-assembling ferritin nanoparticle; cloned into pHLsec between the leader and a double stop codon (AgeI/KpnI); source: FreeStyle 293 F cells, transfected, purified (snowdrop lectin agarose, Superose 6 SEC); copies: 24
# B19: P2 60mer (other)
# chain: SNTRVLNELNYDNAGGSGNGTGGSMQIYEGKLTAEGLRFGIVASRANHALVDRLVEGAIDAIVRHGGREEDITLVRVCGSWEIPVAAGELARKENISAVIAIGVLCRGATPSFDYIASEVSKGLADLSLELRKPITFGVITADTLEQAIEAAGTCHGNKGWEAALCAIEMANLFKSLRGGSNGTGGSGGSNGT
# modifications: glycosylated (engineered glycosylation sites)
# notes: as for B9
# B20: P2 24mer (other)
# chain: SNTRVLNELNYDNAGLSKDIIKLLNEQVNKEMQSSNLYMSMSSWCYTHSLDGAGLFLFDHAAEEYEHAKKLIIFLNENNVPVNLTSISAPEHNFTGLTQIFQKAYEHEQNISESINNITDHAIKSKDHATFNFLQWYVAEQHEEEVLFKDILDKIELIGNENHGLYLADQYVKGIAKSRKS
# modifications: glycosylated (engineered glycosylation sites)
# notes: as for B2
# B21: J3R3 60mer (other)
# chain: KLKQPADGNPDPNANPNVDPNANPNVDPNANPNVDPNANPNANPNANPGSGNGTGGSMQIYEGKLTAEGLRFGIVASRANHALVDRLVEGAIDAIVRHGGREEDITLVRVCGSWEIPVAAGELARKENISAVIAIGVLCRGATPSFDYIASEVSKGLADLSLELRKPITFGVITADTLEQAIEAAGTCHGNKGWEAALCAIEMANLFKSLRGGSNGTGGSGGSNGT
# modifications: glycosylated (engineered glycosylation sites)
# notes: Plasmodium falciparum circumsporozoite protein (PfCSP), strain 3D7; J3R3, junctional peptide with three added NANP repeats; linker between the peptide and lumazine synthase; C-terminal extension with two added glycosylation sites; Self-assembling lumazine synthase nanoparticle; cloned into pHLsec between the leader and a double stop codon (AgeI/KpnI); source: FreeStyle 293 F cells, transfected, …
# Biological target: the molecule itself
# Assay: SEC + SEC-MALS + other: negative stain electron microscopy; self-assembly of the protomer into the nanoparticle; Superose 6 10/300 at 0.5 ml/min with DAWN HELEOS II and Optilab T-rEX detectors, glycan mass corrected by protein-conjugate analysis; nsEM at 0.1 mg/ml in HBS, uranyl formate
row,Protein,binding result
1,B1,binds
2,B2,binds
3,B3,binds
4,B4,binds
5,B5,binds
6,B6,binds
7,B7,binds
8,B8,binds
9,B9,binds
10,B10,binds
11,B11,binds
12,B12,binds
13,B13,binds
14,B14,binds
15,B15,binds
16,B16,binds
17,B17,binds
18,B18,binds
19,B19,binds
20,B20,binds
21,B21,binds
